The results in this text go back to patent US5558865, “HIV immunotherapeutics” (Nissin Shokuhin Kabushiki Kaisha, dated 1996).

In test [1] the target is recombinant HIV-1MN gp120 (Agmed, Inc.) (HIV-1 strain MN, UniProt P05877). In words: Western blot. On the technique in general: Immunoblotting shows a protein as a band on a membrane.
Test [2] has as its target T1, native HIV-1MN gp120 (HIV-1 strain MN, UniProt P05877). In words: Western blot.
In test [3] the target is T2, IIIB loop peptide Peptide 2 (HIV-1 strain IIIB).
T2 peptide: RIQRGPGR
In words: competition ELISA, 5 µg/ml antibody preincubated with 50 µg/ml peptide, on coated recombinant IIIB gp120. For orientation: An ELISA detects its analyte on a solid surface through an enzyme-linked reagent.

For test [4], the target named is V3 loop peptide of HIV-1 isolate IIIB (HIV-1 isolate IIIB). In words: peptide ELISA.
The target of test [5] is V3 loop peptide of HIV-1 isolate CDC4 (HIV-1 isolate CDC4). In words: peptide ELISA.
Test [6] has as its target T3, V3 loop peptide of HIV-1 isolate MN (HIV-1 isolate MN).
T3 peptide: RIHIGPGRAFYTTKN
In words: peptide ELISA.

Test [7] concerns the target V3 loop peptide of HIV-1 isolate Z6 (HIV-1 isolate Z6). Description: peptide ELISA.
In test [8] the target is V3 loop peptide of HIV-1 isolate Z2 (HIV-1 isolate Z2). In words: peptide ELISA.
Test [9] addresses V3 loop peptide of HIV-1 isolate NY/5 (HIV-1 isolate NY/5). In words: peptide ELISA.
For test [10], the target named is V3 loop peptide of HIV-1 isolate ELI (HIV-1 isolate ELI). In words: peptide ELISA.
The target of test [11] is T4, native HIV-1IIIB gp120 (HIV-1 strain IIIB, UniProt P04578). Description: Western blot, colorimetric.
Test [12] deals with recombinant HIV-1IIIB gp120 (DuPont-NEN) (HIV-1 strain IIIB, UniProt P04578). In words: Western blot, colorimetric.
Test [13] concerns the target T5, IIIB loop peptide Peptide 4 (HIV-1 strain IIIB).
T5 peptide: QRGPGRAF
Description: competition ELISA, 5 µg/ml antibody preincubated with 50 µg/ml peptide, on coated recombinant IIIB gp120.

For test [14], the target named is T6, IIIB loop peptide Peptide 3 (HIV-1 strain IIIB).
T6 peptide: IQRGPGRA
The test is described as above.

The target of test [15] is T7, peptide of amino acids 322-336 of HIV-1MN gp120 (HIV-1 strain MN).
T7 peptide: YTTKNIIGTIRQAHC
In words: peptide ELISA, 9.50 ng NM-01.

Test [16] has as its target T8, peptide of amino acids 302-316 of HIV-1MN gp120 (HIV-1 strain MN). In words: peptide ELISA, 9.50 ng NM-01.
The target of test [17] is T9, peptide of amino acids 312-326 of HIV-1MN gp120 (HIV-1 strain MN).
T9 peptide: RIHIGPGRAFYTTKN
Description: peptide ELISA, 9.50 ng NM-01.

The target in test [18] is T1, native HIV-1MN gp120.
Test [19] concerns the target T1, native HIV-1MN gp120. In words: ELISA, hybridoma supernatant on membranes of MN-infected and uninfected H9 cells.
Test [20] has as its target T7, peptide of amino acids 322-336 of …. In words: peptide ELISA.
For test [21], the target named is T8, peptide of amino acids 302-316 of …. In words: peptide ELISA.
For test [22], the target named is V3 loop peptide of HIV-1 isolate RF (HIV-1 isolate RF). In words: peptide ELISA.
Test [23] addresses T7, peptide of amino acids 322-336 of …. Description: peptide ELISA, 4.75 ng NM-01.
Test [24] deals with T8, peptide of amino acids 302-316 of …. In words: peptide ELISA, 4.75 ng NM-01.
The target of test [25] is T9, peptide of amino acids 312-326 of …. Description: peptide ELISA, 4.75 ng NM-01.
Test [26] concerns the target T7, peptide of amino acids 322-336 of …. Description: peptide ELISA, 19.0 ng NM-01.
The target of test [27] is T8, peptide of amino acids 302-316 of …. In words: peptide ELISA, 19.0 ng NM-01.
Test [28] concerns the target T9, peptide of amino acids 312-326 of …. Description: peptide ELISA, 19.0 ng NM-01.
The target in test [29] is T4, native HIV-1IIIB gp120. In words: immunofluorescence on slides of IIIB-infected H9 cells.

B1: monoclonal antibody P4/D10 (antibody, V domains shown)
VH: QIQLQQSGAELASPGASVTLSCKASGYTFTDHIMNWVKKRPGQGLEWIGRIFPVSGETNYNQKFMGKATFSVDRSSSTVSMVLNSLTSEDPAVYYCDLIYYDYEEDYYFDYWGQGTTLTV
VL: DIVLTQSPASLAVSLGQRATISCRASESVDDYGISFMHWYQQKLGQPPKLLIYRASNLESGIPARFSGSGSGTEFTLTINPVETDDVATYYCQQSNKDPLTFGAGTKLELKR
As to B1, the binding result in [1] is on record as “no binding”; in the test with native HIV-1MN gp120 [2], “no binding”; in test [3] it was “binds”; in [4], “binds”; in [5], “no binding”; in test [6], “no binding”. In addition, the binding result in [7] is recorded as “no binding”; in test [8], “no binding”; in test [9], “no binding”; in test [10], “no binding”; in the test with native HIV-1IIIB gp120 [11], “binds”; in test [12], “binds”.

B2: monoclonal antibody F58/H3 (antibody, V domains shown)
VH: B1 VH
VL: B1 VL
Consider B2, for which the binding result in test [1] was “no binding”; with native HIV-1MN gp120 [2], “no binding”; in test [13], “binds”; in test [14], “binds”; in [4] it was “binds”; in [5] it was “no binding”. In addition, the binding result is “no binding” in test [6]; “no binding” in test [7]; “no binding” in test [8]; “no binding” in test [9]; “no binding” in [10]; “binds” in the test with native HIV-1IIIB gp120 [11]. Further, in [12], the binding result was “binds”.

B3: monoclonal antibody NM-01 (antibody, V domains shown)
VH: QIQLKESGPAVIKPSQSLSLTCIVSGFSITSSSYCWHWIRQPPGKGLEWMGRICYEGSIDYSPSIKSRSTISRDTSLNRFFIQLSSVTNEDTAMYYCSRENHGTTTSMDYWGQGTSVTVSS
VL: DIVLTQSPASLAVSLGQRATISCRASESVDSYGNSFMHWYQQKPGQSPKLLIYVASNLESGVPARFSGSGSRTDFTLTIDPVEADDAATYYCQQNNEDPLTFGAGTKLELKR
As for B3, the “optical density at 650 nm” value in [15] came out at 0.028 OD 650 nm; in test [16], 0.024 OD 650 nm; in test [17] it was 0.827 OD 650 nm; in test [23], 0.03 OD 650 nm; in test [24] it was 0.024 OD 650 nm; in test [25] it was 0.781 OD 650 nm. The “optical density at 650 nm” value in [26] was 0.03 OD 650 nm; in [27] it was 0.024 OD 650 nm; in test [28] it was 1.14 OD 650 nm. Besides, the binding result in test [13] is “binds”; in test [4] it was “binds”; in [5], “binds”; in test [7], “no binding”; in test [8], “no binding”; in test [20], “no binding (tested: 19.0 ng)”. In addition, the binding result in test [21] is “no binding (tested: 19.0 ng)”; in [22], “binds”; in [9] it was “binds”; in test [10] it was “no binding”; in test [12], “binds”; in the test with native HIV-1IIIB gp120 [29], “binds”. Also, in the test with native HIV-1MN gp120 [18], the “RIA ratio cpm inf/cpm uninf” value was 9.81 ratio. In the test with native HIV-1MN gp120 [19], the “ELISA ratio, infected against uninfected cell membranes (Run 1)” value was determined as 5.76 ratio.
